The data set can be described thus: Helix content by circular dichroism (CD) at 222 nm in aqueous solution. Format: physicochemical. The text has this:
The size of the partially helical, micelle-like aggregates may be estimated by size-exclusion chromatography. Similarly, the apparent (critical micelle concentrations) CMC's of the peptides may be estimated from the concentration dependent fluorescence in the presence of appropriate dyes (e.g. Brito, R. & Vaz, W. (1986) Anal. Biochem. 152, 250-255).
For the GLP-2 derivatives forming partially structured micellar-like aggregates in aqueous solution the helix content remains constant above 30% at concentrations of 10 μM. The aggregated structured conformation is an inherent property of the derivative present in water or dilute aqueous buffer without the need for any additional structure-inducing components. Note that the CD signal is proportional to the average content of α-helix in the peptides, i.e., a CD value of −1 corresponds to 10% α-helix content under these conditions.

For “native GLP-2: human glucagon-like peptide-2, a 33 amino acid residue peptide; parent peptide of the derivatives”, the helix content is, setting by setting: (at 500 μM concentration, in parallel with peptide self-association) 30-35%; (starting value at low peptide concentration, before the increase seen with increasing concentration) 10-15%.
